Measured values taken from article PMC9043764.

assay: Western blot of supernatant and whole cell lysate, A549; details: glycan lost; control: wild type CTSV

Protein | expression_or_secretion
cathepsin V (CTSV): N221Q (protein) parent chain: MNLSLVLAAFCLGIASAVPKFDQNLDTKWYQWKATHRRLYGANEEGWRRAVWEKNMKMIELHNGEYSQGKHGFTMAMNAFGDMTNEEFRQMMGCFRNQKFRKGKVFREPLFLDLPKSVDWRKKGYVTPVKNQKQCGSCWAFSATGALEGQMFRKTGKLVSLSEQNLVDCSRPQGNQGCNGGFMARAFQYVKENGGLDSEESYPYVAVDEICKYRPENSVANDTGFTVVAPGKEKALMKAVATVGPISVAMDAGHSSFQFYKSGIYFEPDCSSKNLDHGVLVVGYGFEGANSNNSKYWLVKNSWGPEWGSNGYVKIAKDKNNHCGIATAASYPNV | decreases
cathepsin V (CTSV): 2NQ (protein) parent chain: MNLSLVLAAFCLGIASAVPKFDQNLDTKWYQWKATHRRLYGANEEGWRRAVWEKNMKMIELHNGEYSQGKHGFTMAMNAFGDMTNEEFRQMMGCFRNQKFRKGKVFREPLFLDLPKSVDWRKKGYVTPVKNQKQCGSCWAFSATGALEGQMFRKTGKLVSLSEQNLVDCSRPQGNQGCNGGFMARAFQYVKENGGLDSEESYPYVAVDEICKYRPENSVANDTGFTVVAPGKEKALMKAVATVGPISVAMDAGHSSFQFYKSGIYFEPDCSSKNLDHGVLVVGYGFEGANSNNSKYWLVKNSWGPEWGSNGYVKIAKDKNNHCGIATAASYPNV | decreases
cathepsin V (CTSV): N292Q (protein) parent chain: MNLSLVLAAFCLGIASAVPKFDQNLDTKWYQWKATHRRLYGANEEGWRRAVWEKNMKMIELHNGEYSQGKHGFTMAMNAFGDMTNEEFRQMMGCFRNQKFRKGKVFREPLFLDLPKSVDWRKKGYVTPVKNQKQCGSCWAFSATGALEGQMFRKTGKLVSLSEQNLVDCSRPQGNQGCNGGFMARAFQYVKENGGLDSEESYPYVAVDEICKYRPENSVANDTGFTVVAPGKEKALMKAVATVGPISVAMDAGHSSFQFYKSGIYFEPDCSSKNLDHGVLVVGYGFEGANSNNSKYWLVKNSWGPEWGSNGYVKIAKDKNNHCGIATAASYPNV | decreases
